Experimental findings from patent publication US20230365685A1 (SUZHOU NEOLOGICS BIOSCIENCE, published 2023) are described below.

B1: 84G10 (antibody, V domains shown)
VH: QVQLQQSGGELVRPGSSVKISCKASGYAFSSYWMNWVKQRPGQGLEWIGQIYPGEGDTNYNGKFKGKATLTADKSSSTAYMQLSSLTSEDSAVYFCARGHFYGSSYDWFAYWGQGTLVTVSA
VL: DIQMTQSPASLSASVGETVTITCRASENINSYLAWYQQKQGKSPQLLVYHAKTLASGVPSRFSGSGSGTQFSLKINSLQPEDFGSYYCQHHYGTPLTFGAGARLELK
B2: 40F11 (antibody, V domains shown)
VH: QIQLVQSGPELKKPGETVRISCKASGYTFRTAEMQWVQKMPGRGLKWIGWINTRSGVPKYAEDFKGRFALSLETSATTAYLQISNLKNEDTATYFCTRGTYAMDYWGQGTSVTVSS
VL: ENVLTQSPAIMSASPGEKVTMTCRASSIVSSSYLHWYQQKSGASPKLWIYSTSNLPSGVPARFSGSGSGTFYSLTVSSVESEDAATYYCQQYSGYPYTFGGGTKLEIK
B3: 18C6 (antibody, V domains shown)
VH: QVQLQQPGAEIVMPGASVKMSCKASGYKFTDFLMHWVKQRPGQGLEWIGAIDTSDSYASYNQKFKGKATLTLDESSSTAYMQLSSLTSEDSAVYYCSREAMDYWGQGTSVTVSS
VL: DVVMTQTPLSLPVSLGDQASISCRSSQSLVHSNGNTYLHWFLQKPGQSPKLLIYKVSNRFSGVPDRFSGSGSGTDFTLKISRVEAEDLGVYFCCQSTHVPPLTFGAGTKLELK
B4: 50H9 (antibody, V domains shown)
VH: EVQLVESGGDLVKPGGSLKLSCAASGFTFSTNGMSWVRQIPDKRLEWVATISSGGSNTYYPDSVKGRFTISRDNAKNTLYLQMSSLKSEDTAMYYCARRSELGPFAYWGQGTLVTVSA
VL: DVQMIQSPSSLSASLGDIVTMTCQASQGSSVNLNWFQQKPGKSPKLLIHGSNILEDGVPSRFSGSRYGTDFTLTISSLENEDMATYFCLQHSYLPYTFGGGTKLEIK
B5: CH 5# (antibody, V domains shown)
VH: QVQLQQSGPDLVKPGASVKISCKASGYSFTGYYMHWVKQSHGKSLEWIGRVNPNNGGTDYDQKFKGKAILSVDKSSNTAYMELRSLTSEDSAVYYCAREGEYFDYYAMDYWGQGTTVTVSS
VL: DIELTQSPASLAVSLGQRATISCRASESVEYYGTSLMQWYQQKPGQPPKLLIYAASNVESGVPARFSGSVSGTDFSLNIHPVEEDDIAMYFCQQSRKVPITFGSGTKLEIK
B6: CH 8# (antibody, V domains shown)
VH: QVKLQQSGPDLVKPGASVKISCKASGYSFTGYYMHWVKQSHGKSLEWIGRVYPNNGGTSYNQKFKGKAILTVDKSSSTAYMELRSLTSEDSAVYYCAREGEYFDYFAMDYWGQGTTVTVSS
VL: DIELTQSPASLAVSLGQRATISCRASESVEYYGTSLMQWYQQKPGQPPKLLIYAASNVESGVAARFSGSGSGTDFSLNIHPVEEDDIAMYFCQPSRKVPYTFGGGTKLEIK
B7: 38A8 (antibody, V domains shown)
VH: QVQLQQPGAELVKPGASVKMSCKASGYTFTTYNMHWVKQTPGQGLEWIGGIYPGNGDTSYNQKFKGKATLTADKSSSTAYMQLSSLTSEDSAVYYCARSYYTFDAMDCWGQGTSVTVSS
VL: DIVMSQSPSSLAVSAGEKVTMSCKSSQSLLNSRTRKNYLAWYQQKPGRSPKLLIYWASTRESGVPDRFTGGGSGTDFTLTISSVQAEDLAVYYCKQSYSLLTFGAGTKLELK
B8: 38F8 (antibody, V domains shown)
VH: EVQLQQLGAELVKPGASVKISCKASGYIFTDYSMDWVKQSHGESLEWIGDINPNYDSLSYNQKFKGKATLTVDKSSSTAYMELRSLTSEDTAVYYCARRGYGKDYFDFWGQGTSLTVSS
VL: TWGMTQTTSSLSASLGDRVTISCRASQDISNYLNWYQQKPDGTVKLLIYHTSRLYSGVPSRFTGSGSGTDYSLTISNLEQEDIATYFCQQGNTLPLTFGAGTKLELK
B9: 36A2 (antibody, V domains shown)
VH: DVQLVESGGGLVQPGGSRKLSCAASGFTFSSFEMHWVRQAPETGLEWVAYISGGSTTIYYADTMKGRFTISRDNPENTLFLQMTSLRSEDTAIYYCVRSYYGLLDYWGQGTTLTVSS
VL: NIMMTQSPSSLSVSTGEKVTMSCKSSQSVLHSSNQKNFLAWFQQKPGQSPKLLIYWASTRESGVPDRFTGSGSGTDFTLTINNVQPEDLAVYYCHQYLSSLTFGAGTKLELK
notes: also called 36A12
B10: 36B11 (antibody, V domains shown)
VH: QVTLKESGPGILQPSQTLSLTCSFSGFSLSTSGMGVGWIRQPSGKGLEWLAHIWWDDVKRYNPALKSRLTISKDTSSSQVFLKIASVDTADTATYYCVRTFITTTTMDYWGQGTSVTVSS
VL: QIVLTQSPTIMSASPGEKVTLTCSASSGISSSYLYWYQQKPGSSPKLWIYGTSNLASGVPARFSGSGSGTSYSLTISSLEAEDAASYFCHQWSNYPYTFGGGTKLEIK
B11: CH 9# (antibody, V domains shown)
VH: QVKLQESGPGLVAPSQSLSITCTVSGFSLTGYGVHWVRQPPGKGLEWLGMIWGDGSTDYNSALKSRLSISKDNSKSQVFLKMNSLQTDDTARYYCARDRGNHWYFDVWGQGTTVTVSS
VL: DIELTQSPAILSASPGEKVTMTCRASSSVSYMHWYQQKPGSSPKPWIYATSNLASGVPARFSGSGSGTSYSLTISRVEAEDAATYYCQQWSSNPLTFGAGTKLEIK
B12: 3E6 VH4/3E6 VL0 (antibody, V domains shown)
VH: QVQLQESGPGLVKPSQTLSLTCTVSGYSITSGFAWNWIRQPPGNGLEWIGYISHSGSTSYNPSLKSRITISVDTSKNQFSLKLSSVTAADTAVYYCARGYRSPWFAYWGQGTTVTVSS
VL: DIQMTQSPSSLSASVGDRVTITCKASQNVGANVAWYQQKPGKAPKSLIYSASYRYSGVPSRFSGSGSGTDFTLTISSLQPEDFATYYCQQYNSYPTFGGGTKVEIK
notes: Humanized 3E6; VH and VL cloned into vectors with constant regions (CH1-FC/CL) and expressed in 293F cells; also called humanized 3E6 VH4/VL0
B13: 3E6 VH1/3E6 VL0 (antibody, V domains shown)
VH: QVQLQESGPGLVKPSQTLSLTCTVSGYSITSGFAWNWIRQFPGNGLEWMGYISHSGSTSYNPSLKSRVTISVDTSKNQFSLKLSSVTAADTAVYYCARGYRSPWFAYWGQGTTVTVSS
VL: DIQMTQSPSSLSASVGDRVTITCKASQNVGANVAWYQQKPGKAPKSLIYSASYRYSGVPSRFSGSGSGTDFTLTISSLQPEDFATYYCQQYNSYPTFGGGTKVEIK
notes: Humanized 3E6; VH and VL cloned into vectors with constant regions (CH1-FC/CL) and expressed in 293F cells; also called humanized 3E6 VH1/VL0

One assay addresses T1, human TIM-3 recombinant protein (TIM-3-his) (human, UniProt Q8TDQ0 22-202).
T1 construct: also called TIM-3 protein; not shown: His tag
Nature of the assay: biosensor (HFC sensor, Probe Life): antibody captured, TIM-3-his in solution, 1:1 fit.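 Note: antigen applied as a twofold dilution series, association and dissociation phases recorded, KD obtained as koff divided by kon.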
As for B1, the Kd (usually the constant that tells how readily two partners part at equilibrium) was 2.84 nM, the koff (commonly the first-order rate constant of dissociation) was found to be 0.00197 s⁻¹ and the on-rate constant (kon) (usually a measure of how fast the partners come together) is 692000 M⁻¹ s⁻¹.
The matching figures for B2: 2.21 nM, 0.0019 s⁻¹ and 857000 M⁻¹ s⁻¹.
The matching figures for B3: 0.207 nM, 0.00012 s⁻¹ and 580000 M⁻¹ s⁻¹.
B4: the Kd stood at 6 nM, the koff worked out at 0.00903 s⁻¹ and the kon stood at 1.51e+06 M⁻¹ s⁻¹.
The matching figures for B5: 188 nM, 0.00153 s⁻¹ and 8130 M⁻¹ s⁻¹.
Taken in the same sequence, the figures for B6 were 512 nM, 0.00253 s⁻¹ and 4930 M⁻¹ s⁻¹.
Consider B7, for which the Kd came out at 1.36 nM, the koff turned out to be 0.00126 s⁻¹ and the kon came to 928000 M⁻¹ s⁻¹.
The matching figures for B8: 1.74 nM, 0.00255 s⁻¹ and 1.47e+06 M⁻¹ s⁻¹.
Taken in the same sequence, the figures for B9 were 1.01 nM, 0.000559 s⁻¹ and 553000 M⁻¹ s⁻¹.
The matching figures for B10: 0.432 nM, 0.000383 s⁻¹ and 885000 M⁻¹ s⁻¹.
On to B11, for which the Kd is 553 nM, the off-rate constant (koff) turned out to be 0.00287 s⁻¹ and the kon is 5190 M⁻¹ s⁻¹.

The target in another assay is T2, mouse TIM-3 (mouse, UniProt Q8VIM0 20-281).
T2 construct: whole, on cells
In words: flow cytometry on cells stably expressing mouse TIM-3, PE-labelled secondary antibody; concentration not shown. (In general: Flow cytometry measures light scatter and fluorescence of single cells or particles in a stream.)
For the molecule B3, the binding result is “no binding”.

The next assay addresses T3, human TIM-3 (human, UniProt Q8TDQ0 22-202, limits assumed).
T3 construct: also called HAVCR2; target antigen
Nature of the assay: BLI (Octet-96); antigen not named in the paragraph. (BLI is a label-free optical method that tracks binding on a fibre tip over time.)
B12 came in with a Kd of 1.87 nM.
The same measure, in the same setting: with B13 the figure was 467 nM.
